The text below walks through data of paper doi:10.1101/2022.07.22.501140.

Where two headings read alike, the source gives them in different places.

Common to all, as to assay: fluorescence polarization
A general note: Polarisation of emitted light reports the rotation of a fluorescent probe.

Data set [1] concerns the target T1, XlBicc1 N-term (KH1-KH3) (Xenopus laevis, UniProt A0A1L8FE49 1-506).
The target of data set [2] is T2, XlKH1-DmBicc1KH2-KH3 (Xenopus laevis / Drosophila …, UniProt A0A1L8FE49 1-134+Q24009:179-506, internal_change).
For data set [3], the target named is T3, DmBicc1 N-term (Drosophila melanogaster, UniProt Q24009 1-506).
T3 sequence: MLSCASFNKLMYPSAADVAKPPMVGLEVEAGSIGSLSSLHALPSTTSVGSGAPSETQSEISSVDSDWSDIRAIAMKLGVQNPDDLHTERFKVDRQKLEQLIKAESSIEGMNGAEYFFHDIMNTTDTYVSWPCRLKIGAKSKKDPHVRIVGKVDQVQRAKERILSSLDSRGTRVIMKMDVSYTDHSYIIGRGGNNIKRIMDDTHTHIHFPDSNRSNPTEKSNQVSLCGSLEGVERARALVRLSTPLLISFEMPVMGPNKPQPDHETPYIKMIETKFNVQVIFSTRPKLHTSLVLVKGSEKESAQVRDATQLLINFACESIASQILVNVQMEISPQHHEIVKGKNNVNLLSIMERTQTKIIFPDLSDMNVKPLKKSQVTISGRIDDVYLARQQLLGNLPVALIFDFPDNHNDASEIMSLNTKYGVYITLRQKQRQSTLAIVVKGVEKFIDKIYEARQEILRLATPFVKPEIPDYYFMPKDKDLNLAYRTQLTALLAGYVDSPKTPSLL

Data set [4] addresses T4, HsBicc1 N-term (human, UniProt Q9H694 1-506).
Data set [5] addresses T3, DmBicc1 N-term. The source holds these as a separate data set.
Data set [6] addresses T4, HsBicc1 N-term. The source holds these as a separate data set.
Data set [7] deals with T1, XlBicc1 N-term (KH1-KH3). This is another data set of the same source.
In data set [8] the target is T1, XlBicc1 N-term (KH1-KH3). This is another data set of the same source.
In data set [9] the target is T4, HsBicc1 N-term. This is another data set of the same source.
For data set [10], the target named is T2, XlKH1-DmBicc1KH2-KH3. This is another data set of the same source.

T4 sequence (Q9H694 1-506): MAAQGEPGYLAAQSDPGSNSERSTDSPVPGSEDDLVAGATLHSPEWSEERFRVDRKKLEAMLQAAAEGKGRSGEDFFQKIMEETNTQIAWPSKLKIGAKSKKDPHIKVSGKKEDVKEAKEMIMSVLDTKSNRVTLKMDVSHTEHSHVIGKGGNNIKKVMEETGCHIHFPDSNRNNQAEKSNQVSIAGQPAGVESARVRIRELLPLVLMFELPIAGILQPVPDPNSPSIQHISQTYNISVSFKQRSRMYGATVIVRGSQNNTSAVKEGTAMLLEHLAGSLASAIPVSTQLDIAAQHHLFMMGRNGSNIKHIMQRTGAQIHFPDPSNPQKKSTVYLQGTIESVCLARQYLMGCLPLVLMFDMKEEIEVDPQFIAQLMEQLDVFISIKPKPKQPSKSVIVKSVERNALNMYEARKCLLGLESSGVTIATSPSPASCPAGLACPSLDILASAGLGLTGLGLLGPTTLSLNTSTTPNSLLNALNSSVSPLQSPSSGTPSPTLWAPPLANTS

B1: Cripto-1 loop variant (structured_RNA)
RNA: CUUAUUAGACACGUUGUCGCGAAACAGCUCC
B1: in the data set with XlBicc1 N-term (KH1-KH3) [1], the Kd (commonly the equilibrium constant for the complex coming apart) is about 12000 nM. Besides, the binding result with XlKH1-DmBicc1KH2-KH3 [2] is listed as “no binding”. Moreover, the binding signal with DmBicc1 N-term [3] was 3.2 fold reduction vs wild-type RNA; with HsBicc1 N-term [4] it was 15 fold reduction vs wild-type RNA.

B2: Cripto-1 leader variant (structured_RNA)
RNA: CGACUCUAGAAGGUUGUACAUUAACAGCUCC
As for B2, the binding result with DmBicc1 N-term [5], in the data set with HsBicc1 N-term [6] and with XlBicc1 N-term (KH1-KH3) [7] was “no binding” throughout.

B3: Cyclin B1 negative control RNA (ssRNA)
RNA: CGACUCUAGAAGGACUACGUGGCAUUCCAAUU
B3: the binding result with XlBicc1 N-term (KH1-KH3) [8] was “no binding”.

B4: XlCripto-1 wild-type RNA site (structured_RNA)
RNA: CUUAUUAGACACGUUGUACAUUAACAGCUCC
On to B4, for which, in the data set with HsBicc1 N-term [9], the binding result is “binds”. In addition, the Kd in the data set with DmBicc1 N-term [5] is 93 nM; with XlKH1-DmBicc1KH2-KH3 [10] it was 89 nM; in the data set with XlBicc1 N-term (KH1-KH3) [7], 34 nM.
